Reference: article PMC3799859

Target: FLAG-tagged Sig-1R, Q99720
Assay: co-immunoprecipitation (IP: V5, Western blot for FLAG, quantified)
Conditions: chain shown with the change; n = 4; parent: est. 100; read off a plot

Sequence of FLAG-tagged Sig-1R, Q99720 (Q99720 whole entry): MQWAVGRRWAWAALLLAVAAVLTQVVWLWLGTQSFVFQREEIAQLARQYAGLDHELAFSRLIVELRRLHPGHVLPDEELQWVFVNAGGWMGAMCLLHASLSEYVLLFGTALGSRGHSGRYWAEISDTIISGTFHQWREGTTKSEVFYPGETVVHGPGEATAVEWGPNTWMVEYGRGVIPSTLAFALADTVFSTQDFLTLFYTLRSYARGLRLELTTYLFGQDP

B1: ΔIRE1-V5/His (ER lumenal domain of human IRE1), O75460 D123P (protein)
chain: IFGSTSTVTLPETLLFVSTLDGSLHAVSKRTGSIKWTLKEDPVLQVPTHVEEPAFLPDPNDGSLYTLGSKNNEGLTKLPFTIPELVQASPCRSSDGILYMGKKQPIWYVIDLLTGEKQQTLSSAFADSLCPSTSLLYLGRTEYTITMYDTKTRELRWNATYFDYAASLPEDDVDYKMSHFVSNGDGLVVTVDSESGDVLWIQNYASPVVAFYVWQREGLRKVMHINVAVETLRYLTFMSGEVGRITKWKYPFPKETEAKSKLTPTLYVGKYSTSLYASPSMVHEGVAVVPRGSTLPLLEGPQTDGVTIGDKGECVITPSTDVKFDPGLKSKNKLNYLRNYWLLIGHHETPLSASTKMLERFPNNLPKHRENVIPADSEKKSFEEVINLVDQTSENAPTTVSRDVEEKPAHAPARPEAPVDSMLKD
B1 showed a percent of parent of 190%.
